In PMC10092650:
Read-outs that look alike come from different tables or passages of the source. Values belong to the substance of their own block, whether it stands above or below them.

Key:
[1] = target: X-rhodamine-labeled dynamic microtubules nucleated from GMPCPP-stabilized Cy5 MT seeds (UniProt Q6B856); assay: dynamic MT seed assay
[2] = target: doubly stabilized microtubules (GMPCPP and paclitaxel) (UniProt Q6B856); assay: co-sedimentation
[3] = target: GMPCPP-stabilized HyLite 647/biotin-labeled microtubules (bovine) (UniProt Q6B856); assay: single-molecule TIRF microscopy
[4] = target: doubly stabilized microtubules (GMPCPP and paclitaxel) (UniProt Q6B856); assay: co-sedimentation; remark: listed apart in the source
[5] = target: GMPCPP-stabilized HyLite 647/biotin-labeled microtubules (bovine) (UniProt Q6B856); assay: single-molecule TIRF microscopy; remark: listed apart in the source

- percent of two-sided MTs with GFP-Kif18B binding events, with importin α/β [1]: 73%
- percent of two-sided MTs with bound GFP-Kif18B [1]: 46%
- percent pelleted with MTs [2]: 79%
- dwell time at MT plus ends [3]: 5.56 s
- mean dwell time on the MT lattice [3]: 1.77 s
- percent pelleted with MTs [4]: > 90%
- dwell time at MT plus ends [5]: 5.39 s
- mean dwell time on the MT lattice [5]: 2.3 s
Substance: GFP-Kif18B (full-length human Kif18B N-terminally tagged with EGFP) (from UniProt Q86Y91-6 1-833) (natural protein)

- fold increase in the Kd for MTs with importin α/β against without [4]: 9 fold
Substance: YPet-Kif18B(605-828)-His6 (from UniProt Q86Y91-6 605-828) (domain or fragment)

- fold increase in the Kd for MT binding relative to YPet-Kif18B(605-828) [4]: 2 fold
Substance: YPet-Kif18B(605-828)-NLS1/2 (from UniProt Q86Y91-6 605-828) (domain or fragment)
